# In US20240117018A1:
# How the values were obtained:
# Assay in all cases: cell-based or functional assay
# [1] = target: HIV-1 Env of pseudovirus 231966.c02 (HIV-1)
# [2] = target: HIV-1 Env of pseudovirus 6540.v4.c1 (HIV-1)
# [3] = target: HIV-1 Env of pseudovirus R2184.c04 (HIV-1)
# [4] = target: HIV-1 Env of pseudovirus 620345.c01 (HIV-1)
# [5] = target: HIV-1 Env of pseudovirus R3265.c06 (HIV-1)
# [6] = target: HIV-1 Env of pseudovirus C3347.c11 (HIV-1)
# [7] = target: HIV-1 Env of pseudovirus T257-31 (HIV-1)
# [8] = target: HIV-1 Env of pseudovirus BJOX025000.01.1 (HIV-1)
# [9] = target: HIV-1 Env of pseudovirus P0402_c2_11 (HIV-1)
# [10] = target: HIV-1 Env of pseudovirus 6545.v4.c1 (HIV-1)
# [11] = target: HIV-1 Env of pseudovirus 6811.v7.c18 (HIV-1)
# [12] = target: HIV-1 Env of pseudovirus 211-9 (HIV-1)
# [13] = target: HIV-1 Env of pseudovirus BJOX010000.06.2 (HIV-1)
# [14] = target: HIV-1 Env of pseudovirus 3103.v3.c10 (HIV-1)
# [15] = target: HIV-1 Env of pseudovirus 191955_A11 (HIV-1)
# [16] = target: HIV-1 Env of pseudovirus X2131_C1_B5 (HIV-1)
# [17] = target: HIV-1 Env of pseudovirus 3016.v5.c45 (HIV-1)
# [18] = target: HIV-1 Env of pseudovirus 263-8 (HIV-1)
# [19] = target: HIV-1 Env of pseudovirus T255-34 (HIV-1)
# [20] = target: HIV-1 Env of pseudovirus BJOX015000.11.5 (HIV-1)
# [21] = target: HIV-1 Env of pseudovirus X1254_c3 (HIV-1)
# [22] = target: HIV-1 Env of pseudovirus 9004SS_A3_4 (HIV-1)
# [23] = target: HIV-1 Env of pseudovirus P1981_C5_3 (HIV-1)
# [24] = target: HIV-1 Env of pseudovirus 235-47 (HIV-1)
# [25] = target: HIV-1 Env of pseudovirus 89-F1_2_25 (HIV-1)
# [26] = target: HIV-1 Env of pseudovirus R1166.c01 (HIV-1)
# [27] = target: HIV-1 Env of pseudovirus 6952.v1.c20 (HIV-1)
# [28] = target: HIV-1 Env of pseudovirus 3817.v2.c59 (HIV-1)
# [29] = target: HIV-1 Env of pseudovirus 231965.c01 (HIV-1)
# [30] = target: HIV-1 Env of pseudovirus T251-18 (HIV-1)
# [31] = target: HIV-1 Env of pseudovirus 6480.v4.c25 (HIV-1)
# [32] = target: HIV-1 Env of pseudovirus BJOX028000.10.3 (HIV-1)
# [33] = target: HIV-1 Env of pseudovirus 3301.v1.c24 (HIV-1)
# [34] = target: HIV-1 Env of pseudovirus 928-28 (HIV-1)
# [35] = target: HIV-1 Env of pseudovirus 0815.v3.c3 (HIV-1)
# [36] = target: HIV-1 Env of pseudovirus A07412M1.vrc12 (HIV-1)
# [37] = target: HIV-1 Env of pseudovirus C4118.c09 (HIV-1)
substance,measurement,setting,value
PGT145 (antibody),IC50 (Titer in TZM.bl cells),[1],< 0.001 µg/mL
same,IC80 (Titer in TZM.bl cells),[1],0.01 µg/mL
same,IC50 (Titer in TZM.bl cells),[2],0.08 µg/mL
same,IC80 (Titer in TZM.bl cells),[2],5.09 µg/mL
same,IC50 (Titer in TZM.bl cells),[3],0.073 µg/mL
same,IC80 (Titer in TZM.bl cells),[3],0.376 µg/mL
same,IC50 (Titer in TZM.bl cells),[4],0.241 µg/mL
same,IC80 (Titer in TZM.bl cells),[4],19.7 µg/mL
same,IC50 (Titer in TZM.bl cells),[5],0.037 µg/mL
same,IC80 (Titer in TZM.bl cells),[5],0.227 µg/mL
same,IC50 (Titer in TZM.bl cells),[6],0.005 µg/mL
same,IC80 (Titer in TZM.bl cells),[6],0.044 µg/mL
same,neutralization IC50,[7],5.18 µg/mL
same,neutralization IC80,[7],> 50 µg/mL
same,IC50 (Titer in TZM.bl cells),[8],6.63 µg/mL
same,IC80 (Titer in TZM.bl cells),[8],> 50 µg/mL
same,IC50 (Titer in TZM.bl cells),[9],0.009 µg/mL
same,IC80 (Titer in TZM.bl cells),[9],0.038 µg/mL
same,IC50 (Titer in TZM.bl cells),[10],0.114 µg/mL
same,IC80 (Titer in TZM.bl cells),[10],3.1 µg/mL
same,IC50 (Titer in TZM.bl cells),[11],> 50 µg/mL
same,IC80 (Titer in TZM.bl cells),[11],> 50 µg/mL
same,IC50 (Titer in TZM.bl cells),[12],0.129 µg/mL
same,IC80 (Titer in TZM.bl cells),[12],0.923 µg/mL
same,IC50 (Titer in TZM.bl cells),[13],> 50 µg/mL
same,IC80 (Titer in TZM.bl cells),[13],> 50 µg/mL
same,IC50 (Titer in TZM.bl cells),[14],0.043 µg/mL
same,IC80 (Titer in TZM.bl cells),[14],0.164 µg/mL
same,neutralization IC50,[15],< 0.001 µg/mL
same,neutralization IC80,[15],< 0.001 µg/mL
same,IC50 (Titer in TZM.bl cells),[16],0.018 µg/mL
same,IC80 (Titer in TZM.bl cells),[16],0.065 µg/mL
same,IC50 (Titer in TZM.bl cells),[17],> 50 µg/mL
same,IC80 (Titer in TZM.bl cells),[17],> 50 µg/mL
same,neutralization IC50,[18],32.1 µg/mL
same,neutralization IC80,[18],> 50 µg/mL
same,IC50 (Titer in TZM.bl cells),[19],> 50 µg/mL
same,IC80 (Titer in TZM.bl cells),[19],> 50 µg/mL
same,IC50 (Titer in TZM.bl cells),[20],> 50 µg/mL
same,IC80 (Titer in TZM.bl cells),[20],> 50 µg/mL
same,IC50 (Titer in TZM.bl cells),[21],5.6 µg/mL
same,IC80 (Titer in TZM.bl cells),[21],> 50 µg/mL
same,neutralization IC50,[22],0.018 µg/mL
same,neutralization IC80,[22],0.419 µg/mL
same,IC50 (Titer in TZM.bl cells),[23],5.41 µg/mL
same,IC80 (Titer in TZM.bl cells),[23],> 50 µg/mL
same,IC50 (Titer in TZM.bl cells),[24],3.21 µg/mL
same,IC80 (Titer in TZM.bl cells),[24],36 µg/mL
same,IC50 (Titer in TZM.bl cells),[25],0.8 µg/mL
same,IC80 (Titer in TZM.bl cells),[25],20 µg/mL
same,IC50 (Titer in TZM.bl cells),[26],2.27 µg/mL
same,IC80 (Titer in TZM.bl cells),[26],17.9 µg/mL
same,IC50 (Titer in TZM.bl cells),[27],3.12 µg/mL
same,IC80 (Titer in TZM.bl cells),[27],> 50 µg/mL
same,IC50 (Titer in TZM.bl cells),[28],> 50 µg/mL
same,IC80 (Titer in TZM.bl cells),[28],> 50 µg/mL
same,IC50 (Titer in TZM.bl cells),[29],0.403 µg/mL
same,IC80 (Titer in TZM.bl cells),[29],15 µg/mL
same,IC50 (Titer in TZM.bl cells),[30],0.351 µg/mL
same,IC80 (Titer in TZM.bl cells),[30],1.39 µg/mL
same,IC50 (Titer in TZM.bl cells),[31],> 50 µg/mL
same,IC80 (Titer in TZM.bl cells),[31],> 50 µg/mL
same,IC50 (Titer in TZM.bl cells),[32],> 50 µg/mL
same,IC80 (Titer in TZM.bl cells),[32],> 50 µg/mL
same,IC50 (Titer in TZM.bl cells),[33],0.219 µg/mL
same,IC80 (Titer in TZM.bl cells),[33],4.22 µg/mL
same,neutralization IC50,[34],> 50 µg/mL
same,neutralization IC80,[34],> 50 µg/mL
same,IC50 (Titer in TZM.bl cells),[35],> 50 µg/mL
same,IC80 (Titer in TZM.bl cells),[35],> 50 µg/mL
same,IC50 (Titer in TZM.bl cells),[36],0.002 µg/mL
same,IC80 (Titer in TZM.bl cells),[36],0.023 µg/mL
same,IC50 (Titer in TZM.bl cells),[37],< 0.001 µg/mL
same,IC80 (Titer in TZM.bl cells),[37],0.004 µg/mL
